According to publication PMC2629542:

molecular target: Dr hemagglutinin (DraE) adhesin, Dr fimbriae (E. coli); assay: SPR

For N-domain of CEA (domain or fragment), the Kd was 13.1 µM.

molecular target: Dr hemagglutinin (DraE) adhesin, Dr fimbriae (E. coli); assay: SPR; remark: another data set of the same source

Compared with “CEA-CEACAM8 chimera (from UniProt P06731 35-92) (domain or fragment)”, N-CEA D40A (domain or fragment) is 3.4-fold higher in Kd: 14.4 µM for the first, 48.9 µM for the second.

First: N-CEA F9A (domain or fragment)
Second: N-CEA F29R (domain or fragment)
The Kd of the first is lower: 18.4 µM for the first, > 200 µM for the second.

Compared with N-CEA G51D (domain or fragment), N-CEA L28P (domain or fragment) is 1.8-fold lower in Kd: 12 µM for the first, 6.6 µM for the second.

Compared with N-CEA Q44R (domain or fragment), N-CEA S32N (domain or fragment) is lower in Kd: > 200 µM for the first, 12.8 µM for the second. The second binds more tightly here.

First: N-CEA T52N (domain or fragment)
Second: N-CEA V11A (domain or fragment)
The Kd of the first is 2.3-fold lower: 11 µM for the first, 24.9 µM for the second.

N-CEA V39A (domain or fragment) and N-domain of CEA (domain or fragment) are within 1.5-fold of each other in Kd: 9.35 µM for the first, 13.1 µM for the second.

Work on “N-domain of CEACAM1 (domain or fragment)” yielded a Kd of 15.3 µM.
